Reference: patent publication US20210388105A1 (ELPISCIENCE SUZHOU BIOPHARMA, published 2021)

What was measured:
Experiment in all cases: FACS, mutant-EGFP on HEK293F cells
[1] = target: T1, KW27-19 (human CD39 mutant, C-terminal EGFP) (human, UniProt P49961 1-510)
T1 construct: expressed on HEK293F cells; not shown: C-terminal EGFP fusion (vector pCMV3-GFPSpark)
T1 chain: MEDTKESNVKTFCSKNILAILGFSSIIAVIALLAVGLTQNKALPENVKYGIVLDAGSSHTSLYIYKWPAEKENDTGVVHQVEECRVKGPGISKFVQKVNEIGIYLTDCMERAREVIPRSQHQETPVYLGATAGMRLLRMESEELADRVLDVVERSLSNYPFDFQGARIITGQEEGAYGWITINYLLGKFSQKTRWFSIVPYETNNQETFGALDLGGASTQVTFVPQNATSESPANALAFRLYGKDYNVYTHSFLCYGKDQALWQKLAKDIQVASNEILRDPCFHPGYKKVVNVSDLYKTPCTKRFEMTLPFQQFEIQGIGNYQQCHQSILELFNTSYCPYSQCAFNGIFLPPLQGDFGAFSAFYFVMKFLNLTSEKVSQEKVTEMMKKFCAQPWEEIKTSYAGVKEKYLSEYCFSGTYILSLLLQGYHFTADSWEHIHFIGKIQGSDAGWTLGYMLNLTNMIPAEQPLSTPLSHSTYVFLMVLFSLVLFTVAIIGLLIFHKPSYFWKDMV
Method: (§1) Briefly, the human CD39 mutants were generated by gene synthesis and then cloned into an expression vector pCMV3-GFPSpark. The vectors containing the validated mutated sequences were prepared and transfected into HEK293F cells. Three days post transfection, the cells were collected to testing EGFP for transgene expression. A range of dosages of antibodies (start from 100 nM, 3-folds dilution, 11 points) were tested on the 20 generated mutants and stained by AlexFluor647 labelled anti-hIgG by FACS. Antibody binding was descripted as relative binding which is derived from AlexFluor647 intensity divided by GFP intensity.

[2] = target: T2, KW27-14 (human CD39 mutant, C-terminal EGFP) (human, UniProt P49961 1-510)
T2 construct: expressed on HEK293F cells; not shown: C-terminal EGFP fusion (vector pCMV3-GFPSpark)
T2 chain: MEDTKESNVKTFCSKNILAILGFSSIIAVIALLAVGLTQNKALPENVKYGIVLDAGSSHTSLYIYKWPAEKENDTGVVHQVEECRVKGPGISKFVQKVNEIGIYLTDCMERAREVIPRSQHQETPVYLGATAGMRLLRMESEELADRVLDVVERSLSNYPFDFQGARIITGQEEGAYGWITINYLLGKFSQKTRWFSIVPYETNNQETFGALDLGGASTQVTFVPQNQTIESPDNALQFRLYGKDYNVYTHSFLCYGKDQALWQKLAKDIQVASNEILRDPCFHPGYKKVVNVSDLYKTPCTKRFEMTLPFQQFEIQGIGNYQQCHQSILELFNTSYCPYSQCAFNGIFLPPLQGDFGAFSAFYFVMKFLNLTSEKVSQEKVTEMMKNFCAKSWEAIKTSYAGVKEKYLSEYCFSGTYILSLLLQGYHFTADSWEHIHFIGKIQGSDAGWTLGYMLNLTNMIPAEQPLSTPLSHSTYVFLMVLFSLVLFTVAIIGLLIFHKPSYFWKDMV
Method: as §1

[3] = target: T3, KW27-7 (human CD39 mutant, C-terminal EGFP) (human, UniProt P49961 1-510)
T3 construct: expressed on HEK293F cells; K188R and residues 190-206 substituted by KTPGGS; not shown: C-terminal EGFP fusion (vector pCMV3-GFPSpark)
T3 chain: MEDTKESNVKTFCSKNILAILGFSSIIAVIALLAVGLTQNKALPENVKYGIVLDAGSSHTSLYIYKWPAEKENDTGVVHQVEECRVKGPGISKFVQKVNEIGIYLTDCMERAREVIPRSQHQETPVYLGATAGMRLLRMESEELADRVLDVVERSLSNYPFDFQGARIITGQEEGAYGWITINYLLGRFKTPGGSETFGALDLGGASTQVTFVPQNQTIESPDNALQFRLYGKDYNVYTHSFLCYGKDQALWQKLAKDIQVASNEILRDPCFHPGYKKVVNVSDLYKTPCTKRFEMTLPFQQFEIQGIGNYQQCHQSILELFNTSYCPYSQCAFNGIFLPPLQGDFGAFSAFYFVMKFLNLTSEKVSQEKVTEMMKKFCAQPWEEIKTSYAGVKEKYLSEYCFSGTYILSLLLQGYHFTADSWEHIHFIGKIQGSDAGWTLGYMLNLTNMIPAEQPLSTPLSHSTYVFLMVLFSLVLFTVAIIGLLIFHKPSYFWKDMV
Method: as §1

[4] = target: T4, KW27-18 (human CD39 mutant, C-terminal EGFP) (human, UniProt P49961 1-510)
T4 construct: expressed on HEK293F cells; not shown: C-terminal EGFP fusion (vector pCMV3-GFPSpark)
T4 chain: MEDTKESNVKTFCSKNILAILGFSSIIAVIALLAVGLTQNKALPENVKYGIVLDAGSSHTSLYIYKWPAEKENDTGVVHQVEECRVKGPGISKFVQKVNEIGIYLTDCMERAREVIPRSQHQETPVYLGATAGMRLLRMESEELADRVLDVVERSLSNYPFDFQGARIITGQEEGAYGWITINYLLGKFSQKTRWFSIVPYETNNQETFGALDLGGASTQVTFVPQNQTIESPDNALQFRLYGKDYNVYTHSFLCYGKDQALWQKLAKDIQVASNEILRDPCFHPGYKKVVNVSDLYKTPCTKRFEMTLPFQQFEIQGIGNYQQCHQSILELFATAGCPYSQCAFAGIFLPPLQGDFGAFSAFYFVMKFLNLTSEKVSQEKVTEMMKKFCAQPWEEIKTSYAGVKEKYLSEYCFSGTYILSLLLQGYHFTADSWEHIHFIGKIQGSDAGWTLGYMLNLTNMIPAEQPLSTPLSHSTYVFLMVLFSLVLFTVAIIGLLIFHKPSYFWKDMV
Method: as §1

Measured: binding result

B1: Antibody 9-8B (antibody, V domains shown)
VH: QIQLVQSGPELKKPGETVKISCKASGYTFTHYGMNWVKQAPGKGLKWMGWINTYTGELTYADDFKGRFAFSLETSASTAYLQINNLKNEDTATYFCARRAYYRYDYVMDYWGQGTSVTVSS
VL: DIVMTQSQKFMSTSVGDRVSVTCKASHNVGTNVAWYQQKPGQSPKALIYSASYRYSGVPGRFTGSGSGTDFTLTISNVQSEDLAEYFCHQYNNYPYTFGGGTKLEIK
binds: all assays above

B2: hu23.H5L5 (antibody, V domains shown)
VH: QVQLVQSGAEVKKPGASVKVSCKASGYNLKDTFLHWVRQAPGQGLEWMGRIDPANGNIKYDPKFQGRVTITADTSANTAYMELISLRSEDTAVYYCANSPYYYGSGYRIFDVWGQGTTVTVSS
VL: QIVLTQSPATLSLSPGERATLSCSAFSSVNYMHWYQQKPGQAPRLLIYTTSNLASGIPTRFSGSGSGTSYTLTISSLEPEDFAVYYCQQRSTYPFTFGQGTKLEIK
notes: humanized c23
binds: all assays above

B3: c34 (antibody, V domains shown)
VH: EIQVQQSGPELVKPGASVKVSCKASGYSFTDYNMYWVKQSHGKSLEWIGFIDPYNGYTSYNQKFKGKATLTIDKSSSTAFMHLNSLTSEDSAVYYCAIYGYDDAYYFDYWGQGTTLTVSS
VL: QIVLTQSPAIMSASPGEKVTITCSATSSVSYMHWFRQKPGTSPKLWIYSTSNLASGVPARFSGSGSGTSYSLTISRMAAEDAATYYCQQRITYPFTFGSGTKLEIT
notes: its making is not described; also called chimeric antibody c34
binds: all assays above

B4: c35 (antibody, V domains shown)
VH: EVRLQQSGAELVKPGASVKLSCTASGFNIEDTYVHWMKQRPEQGLEWIGRIDPAIDNSKYDPKFQGKATITAVSSSNTAYLQLSSLTSEDTAVYYCALYDGYNVYAMDYWGQGTSVTVSS
VL: DIVMTQAAFSNPVTLGTSASISCRSSKNLLHSNGITYLYWYLQRPGQSPQLLIYRASTLASGVPNRFSGSESGTDFTLRISRVEAEDVGVYYCAQLLELPHTFGGGTKLEIK
notes: its making is not described; also called chimeric antibody c35
binds: all assays above

B5: Antibody T895 (antibody, V domains shown)
VH: EVQLQQSGPELVKPGASVKMSCKASGYTFTDYNMHWVKQSHGRTLEWIGYIVPLNGGSTFNQKFKGRATLTVNTSSRTAYMELRSLTSEDSAAYYCARGGTRFAYWGQGTLVTVSA
VL: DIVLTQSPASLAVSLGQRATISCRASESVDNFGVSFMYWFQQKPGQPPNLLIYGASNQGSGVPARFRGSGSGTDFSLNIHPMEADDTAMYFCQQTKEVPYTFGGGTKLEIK
notes: also called 31895
binds: all assays above
